Target: SpnA (S. pyogenes nuclease A), recombinant, residues Val25 to Leu876 (S. pyogenes) (UniProt Q9A0J7)
Assay: SPR; Biacore T100; SpnA immobilized on a CM5 chip by amino coupling (7247 resonance units); IdeS injected at 10, 20, 40, 80 and 160 μM, 10 μl/min; 100 mM Hepes, 150 mM NaCl, 0.05% surfactant P20, pH 7.4; 1:1 Langmuir binding model

## IdeS (immunoglobulin G-degrading enzyme of Streptococcus pyogenes) (from UniProt Q7DAM2 1-339)
  Kd: 53.3 µM

Source: PMC10654033
